Laboratory results as given in the DeepSol protein solubility set.

assay: soluble on expression in E. coli; label from the status in PepcDB or PDB records

| Sequence | soluble on expression in E. coli |
| --- | --- |
| MGSDKIHHHHHHMLTSGLYQSKNQCCGCELCSCVCPKNLIRMQPDDEGFLYPYIETDEGCVHCNKCIKICPMKSSNRNDIVLKASFGGQTRDIDGTRYSSSGGYATAISKQFILEKGVVVGVRYSSDFSKSEYAIAETIEELEQFRTSKYIQAEKGGIYQTIRNIKRKKILFIGLPCEVSALYNYWGRNTDNLYSISLVCHGPTTPKVQNLFASKLKENNNSQIKYFSVRYKESGWKPYYIYADFENGKHHQELFKGSSYEIAFQYLKRPSCSSCRYKLGDQEFGLVSDLTLGDFHAVEKNMLQYSPWGGVSQASVQSEKGEYLIDLARRQCNVEFIPEKYITKYNYAFHHPVAQKTGRESFKRILLREGLDCAAKSLLVQIPTCYINAKRRIISFLYNVKSYLISK | not soluble |
| MGSDKIHHHHHHMRYNRTETLLQLALELSASHSGLSLTDIEQMFGVGRRTAQRMRDAIERVFPQLEEVPQPDRTKRWRLPNRVLGRVSDLNIDDIMAMETAAEILERDNRPDAAASVRRAGAKVRASLRPDDARRIEPDLEALMQAEGIAMRPGPRPKVRPELVETLRHAIMGCREIRVQYRRRYSTNEHSRVVQPYGLLYGQRHYLLAFVPEENEVRSYSFPNIIGVEETGNSFVRDPAFSLTEYAARSFGLYQEEPYEVMWRFSPDAATDAKEFLFHPSQTHESQPDGSLIVRFKAGGLLEMAWHLYQWGDAVEVLEPEKLRAIHERSKVSWVARP | not soluble |
| MSVTAPSARPAPDHHAQFLQLLDTSLTQNAFIKLVLAKHVGPEADLQRLIIKQLTVKEQPCLSFVYRYKTRDITKNFSLDEGIAAIAELLPAAFKNAHLLTLTDEVQLEYSKKGKSSLFKGKPQTQRDAPSAEHNREKNRFLDLSRPFLADLGVTNKQHELIPAMSRKWKQINKFIEVFSHALGSSPIKLDQPVRVADFGSGKGYLTFAIHDYLRNTLKAEGEVTGVELREDMVTLCNAAAQRLEHPGLVFKCGDVRSVAPSQLEVMIALHACDIATDYAIHTGIRSGAAIIMCSPCCHKQIRQQIQSPQLLKPMLQYGLHLGQQAEMVTDSLRALFLEACGYETKVFEFISLEHTNKNKMILAVKRAEPQDPSQLLARIEELKAFYQISEHCLETLLKADGYLG | soluble |
| MALVKIVRIETFPLFHRLEKPYGDANGFKRYRTCYLIRIITESGIDGWGECVDWLPALHVGFTKRIIPFLLGKQAGSRLSLVRTIQKWHQRAASAVSMALTEIAAKAADCSVCELWGGRYREEIPVYASFQSYSDSPQWISRSVSNVEAQLKKGFEQIKVKIGGTSFKEDVRHINALQHTAGSSITMILDANQSYDAAAAFKWERYFSEWTNIGWLEEPLPFDQPQDYAMLRSRLSVPVAGGENMKGPAQYVPLLSQRCLDIIQPDVMHVNGIDEFRDCLQLARYFGVRASAHAYDGSLSRLYALFAQACLPPWSKMKNDHIEPIEWDVMENPFTDLVSLQPSKGMVHIPKGKGIGTEINMEIVNRYKWDGSAYEGHHHHHH | soluble |
| GPLGSMSFTNATFSQVLDDLSARFILNLPAEEQSSVERLCFQIEQAHWFYEDFIRAQNDQLPSLGLRVFSAKLFAHCPLLWKWSKVHEEAFDDFLRYKTRIPVRGAIMLDMSMQQCVLVKGWKASSGWGFPKGKIDKDESDVDCAIREVYEETGFDCSSRINPNEFIDMTIRGQNVRLYIIPGISLDTRFESRTRKEISKIEWHNLMDLPTFKKNKPQTMKNKFYMVIPFLAPLKKWIKKRNIANNTTKEKNISVDVDADASSQLLSLLKS | soluble |
| MKETEQVSEAPHGLEGAWLDLTNRVRVSGDTVEACSAFSIGPPRCRWLLQATDRGVNCAALDHYVPHICGTHTETVYHIAHHRYIKRAVCEIPFFRFHKARIQVCTAKIACTEQVLPSADTDYPCLEPNDLIVGPSALNRAPRYTRAQDSTIEALILIVVGPDGTSDWRDGKLDDRPPYLTPAAIESLATRYPNMRHLLTNLPSVDRRRDGGLVRSHRAFFATDFAGDGTPSESPQKTITELLRVPPDWQLYDDAEGVVCISLAPIEGLDAIPSSVYFKSH | not soluble |
| MGSDKIHHHHHHVTSLISVKRLNKSFPGVRALHEVQFELMAGEVHALMGENGAGKSTLMKILAGVYTRDSGEILYDGQPVEFLSPRDAQAVGVGIIHQELQLMNHLTVAQNIFIGREPRGRLGLLLDEDRLNAQAAAILARMHVSLDPRAVVGALTVARQQMVEIAKALSFDSRVLIMDEPTSALNDAEIAELFRIIRELKSRGVGIVYISHKMDELKQIADRVTVMRDGEYVATVAARDTSVEAIIGMMVGRTLTDIAPSHSVADQGEIALEVRNLNAGPLVRDVSFALRKGEILGFAGLMGAGRTEVARAVFGADPVESGEIVVNGARATIRTPSDAVAHGIGYLSEDRKRFGLATGMDVESNIVMSNLRKFLSLNFFLRRAQIRRTASHFISLLGIRTPSATQAVRLLSGGNQQKIVIAKWLERDCDVLFFDEPTRGIDVGAKNEIYKLLRSLAGEGKAVVMISSELPEILRMSDRVIVMCEGRITGELSAAEATQERIMHLATRRETLKTAA | not soluble |
| MGSDKIHHHHHHMTNVGRPIETHAITVGQGSDARSIAALVRAPAQDERPTCIWLGGYRSDMTGTKALEMDDLAASLGVGAIRFDYSGHGASGGAFRDGTISRWLEEALAVLDHFKPEKAILVGSSMGGWIALRLIQELKARHDNPTQVSGMVLIAPAPDFTSDLIEPLLGDRERAELAENGYFEEVSEYSPEPNIFTRALMEDGRANRVMAGMIDTGCPVHILQGMADPDVPYQHALKLVEHLPADDVVLTLVRDGDHRLSRPQDIDRMRNAIRAMIEPRP | not soluble |
| MFEEKASSPSGKMGGEEKPIGAGEEKQKEGGKKKNKEGSGDGGRAELNPWPEYIYTRLEMYNILKAEHDSILAEKAEKDSKPIKVTLPDGKQVDAESWKTTPYQIACGISQGLADNTVIAKVNNVVWDLDRPLEEDCTLELLKFEDEEAQAVYWHSSAHIMGEAMERVYGGCLCYGPPIENGFYYDMYLEEGGVSSNDFSSLEALCKKIIKEKQAFERLEVKKETLLAMFKYNKFKCRILNEKVNTPTTTVYRCGPLIDLCRGPHVRHTGKIKALKIHKNSSTYWEGKADMETLQRIYGISFPDPKMLKEWEKFQEEAKNRDHRKIGRDQELYFFHELSPGSCFFLPKGAYIYNALIEFIRSEYRKRGFQEVVTPNIFNSRLWMTSGHWQHYSENMFSFEVEKELFALKPMNCPGHCLMFDHRPRSWRELPLRLADFGVLHRNELSGALTGLTRVRRFQQDDAHIFCAMEQIEDEIKGCLDFLRTVYSVFGFSFKLNLSTRPEKFLGDIEVWDQAEKQLENSLNEFGEKWELNSGDGAFYGPKIDIQIKDAIGRYHQCATIQLDFQLPIRFNLTYVSHDGDDKKRPVIVHRAILGSVERMIAILTENYGGKWPFWLSPRQVMVVPVGPTCDEYAQKVRQQFHDAKFMADIDLDPGCTLNKKIRNAQLAQYNFILVVGEKEKISGTVNIRTRDNKVHGERTISETIERLQQLKEFRSKQAEEEF | soluble |
| GMKTSVKFETIFPLTTAPLIQCITNEITCESMANALLYIDAKPIMADDPREFPQMFQQTSALVLNLGHLSQEREQSLLAASDYARQVNKLTVVDLVGYGASDIRNEVGEKLVHNQPTVVKGNLSEMRTFCQLVSHGRGVDGSPLDQSEEAIEELIQALRQQTQKFPQTVFLATGIQDVLVSQEQVIVLQNGVPELDCFTGTGDLVGALVAALLGEGNAPMTAAVAAVSYFNLCGEKAKTKSQGLADFRQNTLNQLSLLMKEKDWFEAVKGRVL | soluble |
| MSLSKNKLKTPHCMLNLTFNWLSFCEMRGTRDTVEDMFVCKANPVDNQACMAIFDGHGGSKTSYYACGVFIKLYTSAKMIFSKQWLRGTMRGISESVKTKLFPDGSTAAVAMFKDRKLITSTIGDSRIIVMTEDGKLKYENRVHKPTQREEFERVHEAGGSVYGFRLQNSLALSRTMGDIAVPGISAESEEDEVNLDEEDRWVIVGCDGVFDELPMSFVGELCKKAKSAIGLSHSLRTAAFAARSQDNITVVALDVKTLYSKVELASDMNSTMREGHHHHHH | not soluble |
| HWPPLGIVRDLWTESGIGPERVAVMERVAGPKCCLLGRQNDRPSGAAFVGLAGPFAMLHALEVTPALRRLGSAQAMIRRGACWAEAAGAHWFSLVVTTANAPARALYEALGMEEVGHYHYRLK | not soluble |
| MDKADLYEKNQSRKDILNYYREEDKDFEQYLNFRENRKMLQQAFESGTLIRKQNYRARIHERMVEQPVTEKKELLRSR | not soluble |
| MADSTKAGLKKPAFTKVDQLRPGTSGHNVNVKIVSTKMVLQKGRADGPQARQLRISECIVGDETGVIVFTARNDQVDLMKEGSTVTLRNAKIDMYKGSMRLAVDKWGRVEVTEPASFKVKEDTNMSLIEYELVNVVE | soluble |
| GMKSQWECFLQNLGVWEGSFSNFSPEGTLLNDTSSRLCLEGLNNNQTVRLTLSRSGKDDVIREFRSVGGGLLFFENGSFSEGLIQLGPFSEFGGELAFVHENRRLRLVQLFDRNGHLNGLTLIREHLAGTPVAERPLLQINDLLGEWRGQAVTIYRDLRPPDIYSTTLKIQLDDAGRLMQSTSFGERTITSTATIKGSIVLFDQDPEKQVQVLLLPDGASATSPLKVQLRQPLFLEAGWLIQSDLRQRMIRSYNDKGEWVSLTLVTEERV | soluble |
| VIRIGTRGSLLATTQAATVRDALIAGGHSAELVTISTEGDRSMAPIASLGVGVFTTALREAMEAGLVDAAVHSYKDLPTAADPRFTVAAIPPRNDPRDAVVARDGLTLGELPVGSLVGTSSPRRAAQLRALGLGLEIRPLRGNLDTRLNKVSSGDLDAIVVARAGLARLGRLDDVTETLEPVQMLPAPAQGALAVECRAGDSRLVAVLAELDDADTRAAVTAERALLADLEAGCSAPVGAIAEVVESIDEDGRVFEELSLRGCVAALDGSDVIRASGIGSCGRARELGLSVAAELFELGARELMWGVRH | not soluble |
| MSLFILKNVTAVQLEPTLVLEGVDIAIEGSLIKAVGPNLRALYPQANYREMGGKLVMPGIVCAHNHFYSGLSRGIMANIAPCPDFISTLKNLWWRLDRALDEESLYYSGLICSLEAIKSGCSAVIDHHASPNFIKGSLNVLRKGFVEAGLRGMTCFETTDRNGGLAELQAGVEENILFAQAIDAAKAKGREPYLVEAHIGAHAPFTVPDEGLAMLREAVQVTGRGLHIHVAEDRYDMAHGHHHHGKEPIARLDEFDLVDSKTLIAHGIYLSPADIELLNSRDAFLVHNARSNMNNHVGYNMHLPEYRNLALGTDGIGSDMLEELKFAYFKHKDAGGALWPDSFARFLWNGNTLLERNFGAKFGRLEPGYKADLTICDYAAPTPLAPRNLGGHLAFGMGSSSVNSVMVEGRMVYQDREFAFDVEPIYQQASKVASRLWQRMDQLAEGHHHHHH | soluble |
| MGSDKIHHHHHHMTSQDTADTGMADMDMTDTGMFLAKADIFASLTPEEDRAWSQLCTVESVSGGTIVLDYGIRPEIVLVVLSGALRATLRVSAGKELFLDMIGPGGTMAEMDAIRAEGYNLCLMATTDATLVRMPVDVFNDIIAQKHTVCLSLLSVLVQRMHVLHARICEFSYLDVRHRLYTTLLRLSKPSEDKPQQRTISPVIIHAALAEHVGARRETVSREMSRLVQDGVIERNRNAIVIRQPHELLRRLSQFDFA | not soluble |
| MGSDKIHHHHHHAEVADSIEGGNGEAPLEVRAVTGAEVDTRAPAAVEMTEGTLGIFRLAEADYTALDNIRYDRVPGGNWHPVSTVIYVGGTYARLCAYAPYNSVEFKNSSLKTEAGLTMQTYAVEKDMRFAVSGGDEVWKKTPTANFELKRAYARLVLSVVRDATYPNTCKITQAKIKASTGNIITANTVDISTGTEGSGTQTPQYTHTVTTGLKDGFEIGVTDDTSFDWLLPQQTFSGGVVLTLTVDGMDYSVTIPVDKLSTFVRGTKYTVSLVVKGGKLTLMSDKILIDRDWTEVQTGTGGSGSDYDTSFN | not soluble |
